Source: PMC5507626 (Structure (London, England : 1993), 2017)

Key:
crystal structure = molecular target: the molecule itself; experiment: crystal structure
SEC = molecular target: the molecule itself; experiment: SEC

Protein	stoichiometry N (crystal structure)	stoichiometry N (SEC)
TPR(2-142) F113M (domain or fragment, human, UniProt P12270 2-142, looked up, selenomethionine (SeMet construct)) AAVLQQVLERTELNKLPKSVQNKLEKFLADQQSEIDGLKGRHEKFKVESEQQYFEIEKRLSHSQERLVNETRECQSLRLELEKLNNQLKALTEKNKELEIAQDRNIAIQSQMTRTKEELEAEKRDLIRTNERLSQELEYLT	4	
TPR(2-142) F55M/F113M (domain or fragment, human, UniProt P12270 2-142, looked up, selenomethionine (SeMet construct)) AAVLQQVLERTELNKLPKSVQNKLEKFLADQQSEIDGLKGRHEKFKVESEQQYMEIEKRLSHSQERLVNETRECQSLRLELEKLNNQLKALTEKNKELEIAQDRNIAIQSQMTRTKEELEAEKRDLIRTNERLSQELEYLT	2	4
